“Also recorded” adds a separate entry of the source. Bounds are passed on as bounds.

One series concerns HeLa cells. Kind of series: PARP-1 cleavage by SDS-PAGE and Western blotting after transfection of mRNAs encoding SQT-BH3 constructs. Conditions: from anti-FLAG and anti-GFP Western blotting. Format: cell-based. The text has this: The cleavage of PARP-1 was detected by the appearance of a faster-migrating band and concomitant loss of the full-length band by SDS-PAGE and Western blotting. Western blotting with anti-actin antibodies served as a loading control.
(Immunoblotting shows a protein as a band on a membrane.)

Another series has as its system Hep3b xenografts. Kind of series: Efficacy in SCID mice bearing subcutaneous Hep3B xenografts. The format is in vivo. Conditions: SC Hep3B, 2mpk or 3mpk weekly (Day 1 and Day 8), mmRNA with miR-122 binding site in MC3 LNPs (1.5% DSPE). Here is the method:
LNPs comprising the cationic lipid MC3 were tested using the optimal molar percentage of PEG-lipid and optimal PEG length (1.5% DSPE, C18, as described in Example 10), for in vivo targeted delivery of SQT-PUMA-BH3.
SCID mice were dosed weekly (Day 1 and Day 8) over a two week period with mmRNA encoding SQT-PUMA-BH3 (comprising a miR-122 binding site), as described above.

Series [1] deals with human melanoma cells (A375). Kind of series: Cell death after mRNA transfection. Format: cell-based.
The test system of the next series is systemic TF1a tumors. As to the kind of experiment: Repeat study in the TF1a-SCID model with survival endpoint. The format is in vivo. Here is the method: In this repeat study, tumor growth inhibition (TGI) was the primary efficacy over the first 4 weeks of the study and survival was the primary efficacy endpoint over the second 4 weeks of the study. […] Animals were dosed as follows: PBS (0.1 ml/20 g one time per week) IV (Group 1), cytarabine IV at 2 mg/kg three times per week (Group 2), LNPs containing mRNA encoding Green Fluorescent Protein (GFP) at 3 mg/kg one time per week (Group 3) and LNPs containing mRNA encoding SQT-PUMA-BH3 (comprising a miR122 binding site) at 3 mg/kg one time per week (Group 4).
Mice were dosed intravenously for four weeks, with animals in Group 4 being dosed for eight weeks (i.e., weekly dosing up to eight weeks).
In this repeat study, tumor growth inhibition (TGI) was again used as a primary endpoint to quantify efficacy with BLI being used as a surrogate for tumor burden. Bioluminescence Imaging (BLI) was measured weekly out to at least Day 61 post disease induction. The mean BLI results at Day 33 and Day 61 are shown in FIGS. 23A and 23B, respectively.
The survival of the mice over eight weeks was monitored and the percent survival of the mice in the study was assessed.

In series [2] the test system is primary mouse hepatocytes. Kind of series: Sorafenib combination in primary mouse hepatocytes. Conditions: SQT-PUMA-BH3 205 pM or 1100 pM, SQT-Bad-BH3 549 pM or 1100 pM, sorafenib 0-10 uM. Format: cell-based. Here is the method: Similar combination experiments were performed with primary mouse hepatocytes, treated with SQT-PUMA-BH3 (205 pM or 1100 pM) or SQT-Bad-BH3 (549 pM or 1100 pM) in combination with sorafenib (0-10 μM). […] Thus, normal primary liver cells are spared by the combination treatment, indicating the combination treatment can selectively kill liver cancer cells over normal liver cells.

A short description of series [3]: Survival of mice treated with MC3 LNP formulations of mRNA with or without miR-122 binding site. Format: in vivo. The text has this: Negative controls included mRNA encoding SQT alone or SQT with a miR-122 binding site. Constitutively active caspase 6 was used as a positive control. An LNP containing a non-translatable factor IX cap 0 mRNA was used to control for mRNA and lipid effects that might be independent of the proteins encoded by the modified mRNAs. […] This dose was 10 times greater than a dose of mRNA encoding SQT-PUMA-BH3 that killed 40% of mice.

A further series deals with HepG2 cells. As to the kind of experiment: Cell death by YOYO3 with MC3 LNPs. Format: cell-based.
The test system of a further series is Hep3B cells. Kind of series: Sorafenib combination, YOYO-3 apoptosis on IncuCyte ZOOM. The format is cell-based. Here is the method: To determine the effect of SQT-BH3 constructs in combination with the protein tyrosine kinase inhibitor Sorafenib on liver cells, 20,000 Hep3B cells/well in a 96 well plate were treated with increasing amounts of sorafenib tosylate (Selleck Chemicals) and transfected with LNPs containing SQT-PUMA-BH3 (68 pM) or SQT-Bad-BH3 (550pM).

For the next series, the system named is primary hepatocytes. Kind of series: Apoptosis induction by MC3 LNP-formulated mRNAs in primary hepatocytes cultured in vitro. The format is cell-based.
In series [4] the test system is Orthotopic Hep3B xenografts. As to the kind of experiment: Efficacy in SCID mice bearing orthotopic Hep3B xenografts. The format is in vivo. The settings on record: orthotopic Hep3B study, over the course of the study. Here is the method: LNPs comprising the cationic lipid MC3 were tested using the optimal percentage of PEG-lipid and optimal PEG length (1.5% DSPE, C18, as described in Example 10), for in vivo targeted delivery of SQT-PUMA-BH3 in a model of Orthotopic Hep3B xenografts.
SCID mice were anesthetized, a transverse incision was made below the xiphoid and Hep3B cells (2×10^6) were injected into the upper left lobe of the liver, followed by surgical closure of the abdomen and skin. Tumor growth was measured by whole body bioluminescent imaging (BLI) in anaesthetized animals following SC injection of 150 mg/kg D-Luciferin, in an imaging chamber (Spectrum CT). Bioluminescence was measured as total flux (photons/second) of the entire animals. On Day 8 following tumor implantation when tumor BLI reached an average of 3.17×10^8 photons/sec (range 12.37×10^7−1.38×10^9 photons/sec), animals were randomized into study groups and treated weekly over a three week period (Days 9, 16 and 23) with PBS IV (Group 1), SQT 3 mg/kg IV (Group 2), mmRNA encoding SQT-PUMA-BH3 (comprising a miR122 binding site) weekly at 0.75 mg/kg (Group 3), 1.5 mg/kg (Group 4) or 3 mg/kg IV (Group 5; 12 animals per group). One week following the final dose, animals were euthanized and tumors excised and weighed.

Another series concerns the target T1, BCL-XL (Homo sapiens, UniProt Q07817).
T1 construct: endogenous in cells; host or cells: cells transfected with SQT-BH3 mRNA (HeLa by context)
Kind of series: Co-immunoprecipitation after mRNA transfection. The format is binding. Conditions: within two hours after mRNA transfection.

T1 sequence (Q07817 whole entry): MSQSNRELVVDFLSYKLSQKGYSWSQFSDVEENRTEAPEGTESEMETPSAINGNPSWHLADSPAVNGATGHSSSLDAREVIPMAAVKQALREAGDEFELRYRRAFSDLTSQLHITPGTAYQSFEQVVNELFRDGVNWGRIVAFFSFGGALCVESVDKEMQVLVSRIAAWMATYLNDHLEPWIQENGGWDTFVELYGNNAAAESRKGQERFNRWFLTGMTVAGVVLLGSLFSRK

B1: SQT-PUMA-BH3: mRNA (SEQ ID NO: 49, FLAG) encoding SQT scaffold with PUMA BH3 domain in N-terminus, fully modified with 1-methyl-pseudouridine (nucleic acid)
chain: ATGATCCCAAGAGAAGAACAGTGGGCACGCGAAATTGGAGCTCAACTCAGACGGATGGCCGACGACCTGAACGCCCAGTACGAGCGGCGGGGACTCTCAGAAGCGAAGCCTGCCACCCCCGAAATCCAGGAAATCGTCGACAAGGTCAAGCCGCAGCTTGAGGAAAAGACCAACGAGACTTACGGAAAACTGGAGGCCGTGCAGTATAAGACCCAAGTGTTGGCCTCCACCAACTACTACATTAAGGTCCGCGCCGGCGATAACAAGTACATGCACCTGAAGGTGTTCAATGGTCCTCCGGGACAGAACGCGGACAGGGTGCTGACTGGCTACCAAGTGGACAAGAACAAGGACGACGAGCTGACGGGCTTCGACTACAAGGATGATGATGACAAA
modifications: FLAG tag, 1-methyl-pseudouridine; Synthetic SQT-PUMA-BH3 mRNA sequence with FLAG epitope tag
For the molecule B1, in the series on HeLa cells, the “cell death of transfected cells” value is recorded as “underwent cell death”. The “tumor growth inhibition (TGI)” value in the series on Hep3b xenografts was “significantly greater TGI than the mice treated with PBS alone”. The cell death entry in series [1] is given as “caused rapid cell death almost immediately following transfection”. Besides, the “percent body weight change / tolerability” value (in the series on systemic TF1a tumors; in series [4]) was “did not significantly impact body weight” throughout. In addition, the “tumor growth (BLI)” value in the series on systemic TF1a tumors (3 mg/kg one time per week, 3 mg/kg) was “showed marked tumor growth regression as compared to both PBS and LNP controls; also recorded: most effective treatment for inhibiting tumor growth, showing greater efficacy than the cytarabine SOC control”. Moreover, the median survival result with systemic TF1a tumors (post-implant, 3 mg/kg one time per week) is given as “median survival had not yet been reached”. Besides, the “apoptosis in combination with sorafenib” value in series [2] is “neither SQT-BH3 construct, in combination with sorafenib, caused apoptosis”. The molecule further had a mice killed in [3] (mRNA without miR-122 binding site, dose 10 times lower than 1 mg/kg) of 40%. Besides, in series [3] (mice, MC3 LNP formulations, 0.1-3 mg/kg), the “toxicity / tolerable dose / survival” value is recorded as “very toxic over a range of doses”. For the same molecule, in series [3] (mice, MC3 LNP, mRNA without miR-122 binding sites, range of doses), the “death of the treated animals, time” value is ≤ 5 h. The survival rate result in [3] (mice, lowest dose of 0.1 mg/kg, mRNA without miR-122 binding sites) is “approximately 60%”. Also, the “cell death (YOYO3 staining)” value with HepG2 cells is reported as “lead to cell death; also recorded: kills HepG2 cells”. Besides, in the series on Hep3B cells (SQT-PUMA-BH3 68 pM or SQT-Bad-BH3 550pM), the “nature of combination effect with sorafenib” value is “synergistic effect”. In addition, the “apoptosis (YOYO-3), combination with sorafenib vs sorafenib alone” value in the series on Hep3B cells (SQT-PUMA-BH3 68 pM or SQT-Bad-BH3 550pM in LNPs, increasing sorafenib tosylate) is “increased apoptosis of the liver cells as compared to treatment with sorafenib alone”. Besides, the PARP-1 cleavage result with primary hepatocytes (LNPs) is recorded as “also induced PARP-1 cleavage in primary hepatocytes”. Moreover, the “apoptosis (YOYO-3 dye uptake and fluorescence) as a function of time” value with primary hepatocytes (MC3-LNP-formulated) is “induce apoptosis”. Also, the “interaction with BCL-XL by co-immunoprecipitation” value with BCL-XL is recorded as “able interact”.

Source of the values: US20190119357A1, “MESSENGER RIBONUCLEIC ACIDS FOR THE PRODUCTION OF INTRACELLULAR BINDING POLYPEPTIDES AND METHODS OF USE THEREOF” (ModernaTX, Inc., priority 2015, published 2019).
